Earlier results as cited in paper PMC7103376.

Biological target: 3CLpro (SARS coronavirus) (UniProt P0C6X7)

In the case of 3CLpro (from UniProt P0C6X7), the Kd is listed as less than 100 nM.
